Literature values as cited in PMC6651453.
pKd: −log10 of the molar value. Like-named read-outs stand apart in the source and are kept apart here.

What was measured:
TPP1 TBM1 (Homo sapiens) [1] = molecular target: TPP1 TBM1 (Homo sapiens) (UniProt Q96AP0); experiment: fluorescence polarization
TPP1 TBM1 (Homo sapiens) [2] = molecular target: TPP1 TBM1 (Homo sapiens) (UniProt Q96AP0); experiment: fluorescence polarization; remark: listed apart in the source
[3] = molecular target: TPP1 89-544 (Homo sapiens) (UniProt Q96AP0); experiment: fluorescence anisotropy and thermophoresis
[4] = molecular target: POT1 330-634 (Homo sapiens) (UniProt Q9NUX5); experiment: isothermal titration calorimetry
UniProt Q9NUX5, sequence (Q9NUX5 330-634): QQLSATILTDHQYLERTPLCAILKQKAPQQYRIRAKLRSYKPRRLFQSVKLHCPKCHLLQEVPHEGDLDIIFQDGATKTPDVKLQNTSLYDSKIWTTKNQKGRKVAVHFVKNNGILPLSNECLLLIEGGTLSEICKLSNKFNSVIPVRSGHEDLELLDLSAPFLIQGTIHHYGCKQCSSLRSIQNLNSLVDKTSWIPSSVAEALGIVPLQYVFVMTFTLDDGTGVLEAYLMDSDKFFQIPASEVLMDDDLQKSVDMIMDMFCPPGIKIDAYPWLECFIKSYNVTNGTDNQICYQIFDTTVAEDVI

TIN2 (Homo sapiens) = TIN2 (Homo sapiens) (UniProt Q9BSI4); experiment: thermophoresis
[5] = molecular target: TIN2 2-202 (Homo sapiens) (UniProt Q9BSI4); experiment: fluorescence polarization
[6] = molecular target: TIN2 2-202 (Homo sapiens) (UniProt Q9BSI4); experiment: fluorescence polarization; remark: listed apart in the source

TIN2 2-202 (from UniProt Q9BSI4)
pKd (TPP1 TBM1 (Homo sapiens) [1]): 6.85
pKd (TPP1 TBM1 (Homo sapiens) [2]): 6.28

TIN2 (from UniProt Q9BSI4)
pKd [3]: 5.55

TPP1 255-337 (from UniProt Q96AP0)
pKd [4]: 6.92

TRF1 (from UniProt P54274)
pKd (TIN2 (Homo sapiens)): 6.62

TRF2 (from UniProt Q15554)
pKd (TIN2 (Homo sapiens)): 6.44

TRF2 TBM2 (from UniProt Q15554)
pKd [5]: 5.57
pKd [6]: 5.96
